Sequences and labels used below:
B3: EsaDc H528A (EsaD residues 450-614, crystallised with EsaG) (domain or fragment)
chain: SPNYTKVEFGEHYARLRPKKLKANIEYTTPTGHIYRTDHKGRIKEVYVDNLSLKDGDRNSHAQRTVGGEDRLPDDDGGALIARMFGGSKDIDNLVAQSKFINRPFKEKGHWYNLEKEWQEFLNSGKEVKNIKMEVKYSGNSQRPTIFKVEYEINGERNIRRILNK
notes: source: E. coli BL21(DE3), purified (nickel column, ion exchange, Superdex 200); not shown: His6-SUMO, N-terminal, cleaved
B4: EsaG (natural protein)
chain: MTFEEKLSKIYNEIANEISSMIPVEWEKVYTMAYIDDGGGEVFFNYTKPGSDDLNYYTNIPKEYNISVQVFDDLWMDLYDLFEELRDLFKEEDLEPWTSCEFDFTREGELKVSFDYIDWINSEFGQIGRQNYYKYRKFGILPETEYEINKVKEIEQYIKELEE
notes: also called antitoxin EsaG; full-length EsaG; source: E. coli BL21(DE3), purified (nickel column, ion exchange, Superdex 200); not shown: His6-SUMO, N-terminal, cleaved

For series [1], the target named is Avi-tagged EsaG, biotinylated (S. aureus) (UniProt Q2G178). The experiment in a line: BLI; biotinylated Avi-tagged EsaG immobilised on streptavidin biosensors, EsaDc in solution at different concentrations; 300 mM NaCl, 30 mM NaH2PO4, 27 mM KCl, pH 7.2.
The target in series [2] is B4. The experiment in a line: pull-down; His-SUMO-tagged protein on Ni-NTA beads with untagged protein (0.16 mM : 0.2 mM); 25 mM Tris-HCl pH 8.0, 1 M NaCl, 24 °C, 30 min; Coomassie-stained SDS-PAGE. As to conditions: both partners purified.
For series [3], the target named is B4. The series is described as follows: SEC; gel filtration of purified proteins and their mixtures; column and buffer not told for these runs. The note with it: both partners purified.
Series [4] deals with the molecule itself. The series is described as follows: crystal structure; EsaDc-EsaG complex, 2.60 Å; hanging drop, 0.1 M Tris pH 8.5, 12% PEG6000, 0.15 M NaCl, 10% ethylene glycol, 0.5% Tacsimate pH 7.0, 1.0% PEG5000MME.
The target of series [5] is B3. The description is as above. The note with it: both partners purified.

“EsaDc N562F (from UniProt Q2G179 450-614) (domain or fragment)” gave a dissociation constant Kd in series [1] of 860 nM. As to “EsaDc (EsaD residues 450-614, as used in the solution assays) (from UniProt Q2G179 450-614) (domain or fragment)”, in series [1], the dissociation constant Kd amounted to 460 nM. Consider “EsaDc Y484A (from UniProt Q2G179 450-614) (domain or fragment)”, for which, in series [1], the dissociation constant Kd is 1670 nM.

B1: His-EsaDc-NFL (His-SUMO-tagged EsaD residues 450-503) (domain or fragment)
chain: SPNYTKVEFGEHYARLRPKKLKANIEYTTPTGHIYRTDHKGRIKEVYVDNLSLK
notes: also called His-tagged NFL; source: E. coli, purified; not shown: His-SUMO, N-terminal, kept
For the molecule B1, the binding result in series [2] is “binds”.

B2: NFL (EsaD residues 450-503) (domain or fragment)
chain: SPNYTKVEFGEHYARLRPKKLKANIEYTTPTGHIYRTDHKGRIKEVYVDNLSLK
notes: 15N-labelled in one of the HSQC samples; The methods call the fragment NTL; also called EsaDc-NFL; NTL; source: E. coli BL21(DE3), purified (nickel column, ion exchange, Superdex 200); not shown: His6-SUMO, N-terminal, cleaved
For B2, the binding result in series [3] is “binds”.

Consider B3, for which, in series [4], the binding result is reported as “binds”. For B4, the binding result in series [5] is reported as “binds”.
